In patent US20250304717A1, “CAMPTOTHECIN DERIVATIVE AND LIGAND-DRUG CONJUGATE” (HAINAN SIMCERE ZAIMING PHARMACEUTICAL CO., LTD., priority 2022, published 2025) one finds EC50 data, which are given here for 13 molecules.

T1: CDH6 on OVCAR3 cells (human, UniProt P55285 54-790)
T1 construct: whole, on cells; also called CDH6 positive cells OVCAR3; CDH6 high-expression cell strain
T1 sequence (looked up): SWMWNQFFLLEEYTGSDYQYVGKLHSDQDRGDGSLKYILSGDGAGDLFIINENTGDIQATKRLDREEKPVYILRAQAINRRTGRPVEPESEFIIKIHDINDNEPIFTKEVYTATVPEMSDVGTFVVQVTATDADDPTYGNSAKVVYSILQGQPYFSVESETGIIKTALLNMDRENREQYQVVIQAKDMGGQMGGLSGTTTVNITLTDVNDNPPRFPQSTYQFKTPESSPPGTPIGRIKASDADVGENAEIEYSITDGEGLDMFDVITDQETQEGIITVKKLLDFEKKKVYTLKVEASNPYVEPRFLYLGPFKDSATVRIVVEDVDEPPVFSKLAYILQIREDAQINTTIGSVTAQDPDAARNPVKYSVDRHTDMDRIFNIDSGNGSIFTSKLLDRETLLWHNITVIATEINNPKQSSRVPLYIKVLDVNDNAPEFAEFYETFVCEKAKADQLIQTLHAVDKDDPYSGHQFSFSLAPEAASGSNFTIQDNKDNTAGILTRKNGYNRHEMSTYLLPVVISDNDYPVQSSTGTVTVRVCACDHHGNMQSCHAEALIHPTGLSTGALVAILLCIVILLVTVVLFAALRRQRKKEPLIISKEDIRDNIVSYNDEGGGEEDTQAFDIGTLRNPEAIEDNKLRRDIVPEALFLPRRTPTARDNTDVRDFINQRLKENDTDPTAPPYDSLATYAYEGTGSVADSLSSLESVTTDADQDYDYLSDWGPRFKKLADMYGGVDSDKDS

B1: ADC-L1-19-5 (antibody, human IgG1, kappa, V domains shown)
VH: EVQLVQSGAEVKKPGASVKVSCKASGYTFTDNYINWVRQAPGQRLEWMGWIYPGTGNSYYNEKFKGRVTITVDTSASTAYMELSSLRSEDTAVYLCASSYGDSFDYWGQGTTVTVSS
VL: DIVMTQSPDSLAVSLGERATINCRASQDIRNYLNWYQQKPGQTPKLLISYTSRLHSGVPDRFSGSGSGTDFTLTISSLQAEDVAVYYCQQYSQLPWTFGGGTKVEIKR
modifications: drug-linker L1-19 on cysteine thiols after TCEP reduction; positions not given; DAR 6.8 for the whole conjugate
notes: Antibody-drug conjugate
B2: CDH6-Ab-2 (antibody, human IgG1, kappa, V domains shown)
VH: B1 VH
VL: B1 VL
notes: also called humanized anti-human CDH6 antibody CDH6-Ab-2
B3: ADC-L1-14-P1-3 (antibody, human IgG1, kappa, V domains shown)
VH: EVQLVQSGAEVKKPGASVKVSCKASGYTFTRNFMHWVRQAPGQGLEWMGWIYPGDGETEYAQKFQGRVTITADTSTSTAYMELSSLRSEDTAVYYCARGVYGGFAGGYFDFWGQGTLVTVSS
VL: DIQMTQSPSSLSASVGDRVTITCKASQNIYKNLAWYQQKPGKAPKLLIYDANTLQTGVPSRFSGSGSGSDFTLTISSLQPEDFATYFCQQYYSGWAFGQGTKVEIKR
modifications: drug-linker L1-14-P1 on cysteine thiols after TCEP reduction; positions not given; DAR 8.5 for the whole conjugate
notes: Antibody-drug conjugate
B4: ADC-L1-19-3 (antibody, human IgG1, kappa, V domains shown)
VH: B3 VH
VL: B3 VL
modifications: drug-linker L1-19 on cysteine thiols after TCEP reduction; positions not given; DAR 7.1 for the whole conjugate
notes: Antibody-drug conjugate
B5: ADC-L1-19-P1-3 (antibody, human IgG1, kappa, V domains shown)
VH: B3 VH
VL: B3 VL
modifications: drug-linker L1-19-P1 on cysteine thiols after TCEP reduction; positions not given; DAR 7.2 for the whole conjugate
notes: Antibody-drug conjugate
B6: CDH6-Ab (antibody, human IgG1, kappa, V domains shown)
VH: B3 VH
VL: B3 VL
notes: also called anti-human CDH6 monoclonal antibody CDH6-Ab
B7: ADC-L1-19-6 (antibody, human IgG1, kappa, V domains shown)
VH: EVQLVQSGAEVKKPGASVKVSCKASGYTFTDYYMAWVRQAPGQGLEWMGYIFPNSGGTDYSQKFKGRVTLTVDKSTSTVYMELSSLRSEDTAVYYCARELGADYGDYYAMDHWGQGTTVTVSS
VL: DIQMTQSPSSLSASVGDRVTITCRASENIDSYLAWYQQKPGKSPKLLVYSATLLADGVPSRFSGSGSGTDYTLTISSLQPEDFATYYCQHYYRTPPTFGQGTKLEIKR
modifications: drug-linker L1-19 on cysteine thiols after TCEP reduction; positions not given; DAR 7.4 for the whole conjugate
notes: Antibody-drug conjugate
B8: ADC-L1-19-P1-6 (antibody, human IgG1, kappa, V domains shown)
VH: B7 VH
VL: B7 VL
modifications: drug-linker L1-19-P1 on cysteine thiols after TCEP reduction; positions not given; DAR 8.0 for the whole conjugate
notes: Antibody-drug conjugate
B9: CDH6-Ab-3 (antibody, human IgG1, kappa, V domains shown)
VH: B7 VH
VL: B7 VL
notes: also called humanized anti-human CDH6 antibody CDH6-Ab-3
B10: ADC-L1-19-10 (antibody, human IgG1, kappa, V domains shown)
VH: QVQLRESGPGLVKPSETLSLTCTVSGFDISSYYMSWVRQPPGKGLEWIGAIGISGNAYYASWAKSRVTISRDTSKNQFSLKLSSVTAADTAVYYCARDHPTYGMDLWGPGTLVTVSS
VL: SYELTQPPSVSVAPGKTARITCEGNNIGSKAVHWYQQKPGQAPVLVIYDDDERPSGIPERFSGSNSGNTATLTISRVEAGDEADYYCQVWDSSAYVFGGGTKLTVLR
modifications: drug-linker L1-19 on cysteine thiols after TCEP reduction; positions not given; DAR 7.2 for the whole conjugate
notes: Antibody-drug conjugate
B11: ROR1-Ab-3 (antibody, human IgG1, kappa, V domains shown)
VH: B10 VH
VL: B10 VL
notes: also called anti-human ROR1 monoclonal antibody ROR1-Ab-3
B12: ADC-L1-19-P1-10 (antibody, human IgG1, kappa, V domains shown)
VH: B10 VH
VL: B10 VL
modifications: drug-linker L1-19-P1 on cysteine thiols after TCEP reduction; positions not given; DAR 8.0 for the whole conjugate
notes: Antibody-drug conjugate
B13: ADC-L1-0-10 (antibody, human IgG1, kappa, V domains shown)
VH: B10 VH
VL: B10 VL
modifications: drug-linker L1-0 on cysteine thiols after TCEP reduction; positions not given; DAR 7.5 for the whole conjugate

One test addresses T1, CDH6 on OVCAR3 cells. The experiment in a line: flow cytometry (FACS) on OVCAR3 cells, Alexa Fluor 647 anti-human Fc secondary antibody, MFI, four-parameter fit. The method, then: OVCAR3 cells were collected, counted, and plated in a 96-well plate (Corning, 3795) at 2×10⁵ cells/well. The serially diluted sample to be detected was added and incubated at 4° C. for 1 h. After the mixture was washed twice with ice PBS, Alexa Fluor-647 Goat anti-human Fc secondary antibody (JacksonImmuno, 109-605-098) was added, and the mixture was incubated at 4° C. for 1 h. After the mixture was washed twice with ice PBS, the cells were resuspended, and the mean fluorescence intensity (MFI) was analyzed using a flow cytometer (BD FACSCanto™ II). Data were analyzed by four-parameter curve fitting using Graphpad Prism software to give EC₅₀ values.
(In flow cytometry, cells or beads pass a laser one at a time.)
For orientation: EC50 means the midpoint of the concentration-response curve. Low readings indicate higher potency in that assay, high ones lower potency in that assay. Take B1: the concentration for a half-maximal effect (EC50) turned out to be 0.51 nM.
On the same count and under the same terms, for B2 the value was 0.63 nM.
B3 gave a concentration for a half-maximal effect (EC50) of 0.49 nM.
Molecule B4 showed an EC50 of 0.34 nM.
As for B5, the 50% effective concentration (EC50) turned out to be 0.36 nM.
Regarding B6, a half-maximal effect (EC50) was put at 0.71 nM.
B7 yielded an EC50 of 0.85 nM.
On the same count and under the same terms, then B8, with 0.8 nM.
Same read-out and setting: then B9, with 0.78 nM.

The target in another test is human ROR1 on stably transfected cell strain MCF7-hROR1 clone 2G2 (human, UniProt Q01973 30-406). The test is described as follows: flow cytometry (FACS) on MCF7-hROR1 clone 2G2 cells, 5-fold dilutions from 100 nM, Alexa Fluor 647 anti-human IgG secondary antibody, four-parameter fit. The method, then:
Stably transfected cell strain MCF7-hROR1 clone 2G2 constructed in the steps described above was expanded to a logarithmic growth phase in a T-75 cell culture flask, and the medium supernatant was discarded after centrifugation. The cell pellet was washed twice with PBS. […] After the mixture was washed twice with PBS, a secondary antibody was added: Alexa Fluor® 647 AffiniPure Goat Anti-Human IgG (H+L) (purchased from Jackson Immuno, Cat. No: 109-605-088), and the mixture was incubated at 4° C. for 1 h. After the mixture was washed twice with PBS, the cells were resuspended, and detected and analyzed by FACS (FACS Canto™, purchased from BD Biosciences). Data were analyzed by four-parameter curve fitting using Graphpad Prism software to give EC₅₀ values.
In turn, B10 returned a half-maximal effective concentration (EC50) of 0.98 nM.
For the molecule B11, a half-maximal effect (EC50) was put at 0.91 nM.
B12 had a concentration giving a half-maximal response (EC50) of 0.57 nM.
Same read-out and setting: for B13 the value was 1.25 nM.
